Assay: yeast display, Sf9 membrane polyspecificity reagent, FACS + sequencing; frameworks hold sequencing errors
In short: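 Nanobodies came from a synthetic yeast display library in Saccharomyces cerevisiae BJ5465, induced with galactose for 36–48 hours and stained for 1 hour at 4 °C with 10% biotinylated, detergent-solubilized Sf9 membrane reagent. Cells were enriched on streptavidin microbeads and then FACS-sorted, with low and high (top ~1%) gates set on anti-HA fluorescence for expression and streptavidin fluorescence for reagent binding. Each polyreactivity label reflects the gate a clone came from. Genes were amplified by colony PCR, sequenced by MiSeq 2 × 250 and filtered by CDR length.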

Sequence: QVQLVESGGGLVQAGGSLRLSCAASGITFTSYVMGWYRQAPGKERELVAAIRWSGGRTYYADSVKGRFTISRDNAKNTDYLQMNTLKPAATAVYYCNRVTRSHVDYWGQGTQVTVSS
- polyreactivity (PSR sort gate): high polyreactivity

Sequence: HAQLQESGGGMVQAGGSLRRSCAASGSIILFSGMGWYRRARGKERELVASIGFGSITYYADRVKGRFTISRDNANNTVYLQMNSLKPEDTAVYYCAVQVQDESWLDYWGQGTQVTVSC
- polyreactivity (PSR sort gate): low polyreactivity

Sequence: QVQLVESGGGLVQAGGSHRLSCAASGRIFPSYAMGWYRQAPGKQRELVAAISKYGGRTYYADSVKGRFTISRDNAKNTVYLQMNSLKPEDTEVYYCAADGFRYYSWTRFSYYSGYDYWGQGSQVTVSS
- polyreactivity (PSR sort gate): high polyreactivity

Sequence: QVQLVESGGGLVQAGGSLRLSCAASGSIFSIYAMGWYRQAPGKERELVAAIDSGTSTTYADSVKGRFRISRDNAKKTVYLQMKSLKPEDTAVYYCAAALYSDVAAVATFGYYWGQGTQVTVSS
- polyreactivity (PSR sort gate): low polyreactivity

Sequence: QVQLVESGGGLVQAGGSLRISCAASGRTFRTYAMGWYRQAPGKERELVAAISYSDGSTYYADSVKGRFTISRDNAKNTVYLQMNSLKPEDTAVYYCAIEYEDPYYIRYQVGYDFDYWGQGTQVTVSS
- polyreactivity (PSR sort gate): low polyreactivity

Sequence: QVQLVESGGGLVQAGGSLRLSCAASGSTFVNNAMGWYRQAPGKERELVASITQSGGSTFYADSVKGRFTISRDNAKNTVYLQMNSLKPEDTAVYYWGQGTQVTVSS
- polyreactivity (PSR sort gate): low polyreactivity

Sequence: QVELVESAAGLVQAGASLRLSCAASGTTIKSYVMGWYRQPPGKETELVAAISSGDSTYYADSVKGRFTISRDNAKNTVYLQMNSLNPEDTAVYYCAADPCYSVEPWEDDYWGQGSQVTVSS
- polyreactivity (PSR sort gate): low polyreactivity

Sequence: QVQLVESGGGLVQSGGSLRLICAASGRIFPYYAMGWYRQAPGKERELVATIRGRVGTTYYADSVKGRFTISRDNAKNTVYLQMTSLKPEDTAVYYCAKREYSRYTRVFGYGSWGQCTQVTVSS
- polyreactivity (PSR sort gate): high polyreactivity

Sequence: QVQLVESGGGLVQAGGSLRLSCAASGIIFGSYAMGWYRQAPGKEREFVADISKGDSTYYADSVKGRFTISRDNAKNTVYLQMNSLKPEDTAVYYCAVDSWRRALWYYGRYGYWGQGTQVTVSS
- polyreactivity (PSR sort gate): low polyreactivity

Sequence: QVQLVESGGGLVQAGGSLRLSCAASGSIFSRYAMGWYRQAPGKERELVAAITWRGGSTYYADSVKGRFTISRDNAKNTVYLQMNSLKPEDTAVYYCAKDRWTYAFRVGYGYWGQGTQVTVSS
- polyreactivity (PSR sort gate): high polyreactivity

Sequence: QVQLVESGGGLVQAGGSLRLSCAASGTFPVYTMGWYRQAPGKERELVAAISRNGGSTYYADSVKGRFTISRDNAKNTVYLQMNSLKPEDTAVYYCAAVKVKRPGMDYWGQGTQVTVSS
- polyreactivity (PSR sort gate): high polyreactivity

Sequence: QVQLVESGGGLVQAGGSRRLSCAASGSTFRGNARGRYRQAPGKERELVAAITWSGDDTYYADSVKGRFTISRDNAKNTVYIQMNSLKPEDTAVYYCAADVQPDTRSTPEMDYWGQGTQVTVSS
- polyreactivity (PSR sort gate): low polyreactivity

Sequence: QVQLVESGGGLVQAGGSLRLSCAASGSTFYYNAMGWYRQAPGKEREFVASISWRGGRTYYADSVKGRFTISRDNAKNTVYLQMNSLKPEDTAVYYCAKGYLALGQPDDYWGQGTQVTVSS
- polyreactivity (PSR sort gate): high polyreactivity

Sequence: QVQLVESGGGLVQAGGSLRLSCAASGRTFYFYAMGWYRHAPGKERELVAAITSGGGRTNYADSVKGRFTISRDNAKNTVYLQMNSLKPEDTSVYYCAAVLYGQYTGKYYFWGQGTQVTVSS
- polyreactivity (PSR sort gate): high polyreactivity

Sequence: QVQLVESGGGLVQAGGSLRLSCAASGIIFRRYAMGWYRQAPGKERELVAAITGRGGSTYYADSVKGRFTISRDNAKNTVYLQMNSLKPEDTAVYYCAADVYTGDYDSWGQGTQVTVSS
- polyreactivity (PSR sort gate): high polyreactivity

Sequence: QVQLVESGGGLVQAGGSLRLTCAASGRIFTTNAMGWYRQAPGKERELVAAITSGASTYADSVKGRVTISRDNAKNTGYLQMNSLKPEDTAVYAESTYNWYYYYWGQGTQVTVSS
- polyreactivity (PSR sort gate): low polyreactivity

Sequence: QVQLVESGGGLVQAGGSLRLSCAASGRTFTYYAMGWYRQAPGKVRELVAAITFRGGRTYYADSVKGRFTFSRDNPKNTVYLQMNSLKPEDTAVYYCAAVPLWSYGGNYWGQGTQVTVSS
- polyreactivity (PSR sort gate): high polyreactivity

Sequence: QVQLVESGGGLVQAGGSLRLSCAASGSTFNDYTMGWYRQAPGKERELVAAITDSGGSTYYADSVKGRFTISRDNAKNTVYLQMNSLKPEDTAVYYCAAAVPELYEVRYHDDYWGQGTQVTVSS
- polyreactivity (PSR sort gate): low polyreactivity

Sequence: QVQLVESGGGLVQAGGSLRLSCAASGFTFRYYPMGWYRQAPGKERELVAAISWDRDSTYYADSVKGRFTISRDHAKHTVYFQMNSLKPEDTAVYYCAPEYRSWGRYRYRFNYWGQGTQVTVSS
- polyreactivity (PSR sort gate): high polyreactivity

Sequence: QVQLVESGGGLVQAGGSLRLSCAASGRTFWRNAMGWYRQAPGKERELVAAINSGGRTYYADSVKGRFTISRDNAKNTVYLQMNSLKPEDTAVYYCAAVYSQSTKRYELYYWGQGTQVTVSS
- polyreactivity (PSR sort gate): high polyreactivity

Sequence: QVQLVESGGGLVQAGGSLRLSCAASGNIFYYNAMGWYRQAPGKERELVAAISDSGSSTHYADSVKGRFTISRDNAKNTVYLQMNSLKPEDTAVYYCGARATTNRFRYYYWGQGTQVTVSS
- polyreactivity (PSR sort gate): high polyreactivity

Sequence: QVQLVESGGGLVQAGGSLRLSCAASGSTFDFYPMGWYRQAPGKERELVAAIRIGGNPNYADSVKGRLTISRDNAKNTVYLQLNSLKPEDTAVYYCARDDTYDTPLSPYDYWGQGTQVTVSS
- polyreactivity (PSR sort gate): low polyreactivity

Sequence: QVQLVESGGGLVQAGGSLRLSCAASGLTFHPYAMGWYRQAPGKERELVAAISSRGTSTYYADSVKGRFTISRDNAKNTVYLQMNSLKPEDTAVYYCAARHGPRAEAMYYWGQGTQVTVSS
- polyreactivity (PSR sort gate): high polyreactivity

Sequence: QVHLVESGGGLVQAGGSLRLSCAASGFTFIDYAMGWYRQAPGTERELVAAITTGTITYYADSVQGRFTISRDNAKNTVYLQMNSLKPEDTAVYYCAPTYSRRGGYRMEYWGQGTQVTVSS
- polyreactivity (PSR sort gate): low polyreactivity

Sequence: QVQLVESGGGLVQAGGSLRLSCAASGSIFSLYAMGWYRQAPGKERELVADIRTSTGRTYYADSVKGRFTISRDNAKNTVYLQMNSLKPEDTAVYYCNADEYKSAVSVGYEYWGQGTQVTVSS
- polyreactivity (PSR sort gate): high polyreactivity

Sequence: QVQLVESGGGLVQAGGSLRLSCAASGFNFGINAMGWYRQAPGKEREWVAAINQSGDRTYYADSVKGRFTISRDNAKNTVYLQMNSLNPEDTEVYYCASLSTYRTWYGDWGQGTQVTVSS
- polyreactivity (PSR sort gate): high polyreactivity

Sequence: QVQLVESGGGLVQAGGSLRLSCAASGSIFLWYTMGWYRQAPGKERELVAAISRTGGSTYYADSVKGRFTISRDNAKNTVYLQMNSLKPEETAVYYCAASFRPRSSRDYYYGYGYWGQGTQVTVSS
- polyreactivity (PSR sort gate): high polyreactivity

Sequence: QVQLVESGGGLVQAGGSLRLSCAASGSIFSTYAMGWYRQAPGKERELVASISRRGGSTYYADSVKGRFTISRDNAKNTVYLQMNSLKPEDTAVYYCNASGGPYRFYYWGQGTQVTVSS
- polyreactivity (PSR sort gate): low polyreactivity

Sequence: QVQLVESGGGLVQAGGSLRLSCAASGSTFHANAMGWYRQAPGKERELVAAISRSGGSTNYADSVKGRFTISRDNAKNTVYLQMNSLKPEDTAVYYCAKRAWTGYGYYYWGQGTQVTVSS
- polyreactivity (PSR sort gate): high polyreactivity

Sequence: QFQLVESGGGLVEAGGSLRLSCAASGFTFSWYVMGWYRPAPGKERELVATITNRGGSTYYADSVKGRFTISRDNAKNTVYIQMKSQKPEDTAVYYCAARKKGSRVGYDYWGEGTQVTVSS
- polyreactivity (PSR sort gate): high polyreactivity

Sequence: QVQLVESGGGLFQAGGSLRLSCAASGSTFLIYAMGWYRQAPGKERELVATIRSGGASTNYADSVKGRFTISRDNAKNTVYLQMNSLKPEDTAVYYCPARCWTWTYQSSYVYWGQGTQVTVSS
- polyreactivity (PSR sort gate): low polyreactivity

Sequence: QVQLVDSGGGLVQAGGSLRLSCAASGLTFSKYAMGWYRQAPGKERELVATITRRGSSTYYADSVKGRFTISRDNAKNTVYLQMNSLKPEDTAVYYCNAVGVRRAIGYPSQTEYGYWGQGTQVTVSS
- polyreactivity (PSR sort gate): high polyreactivity

Sequence: QVQLVESGGGLVQAGGSLRLSCAASGNTFPTYAMGWYRQAPGKERELVAAISRRGGSTYYADSVKGRFTISRDNAKNTVYLQMNSLKPEDTAVYYCARPRRSVNVYKYIYNYWGQGTQVTVSS
- polyreactivity (PSR sort gate): high polyreactivity

Sequence: QVQLVESGGGLVQAGGSLRLICAASGSIFYQNAMVGYRQAPGKERELVAAIRSRGGSTYYADSVKGRFTISRDNATNTVYLQMNSLKPEDTAVYYCNKLSRTTSYTYNYWGQGTQVTVSS
- polyreactivity (PSR sort gate): low polyreactivity

Sequence: QVQLVESGGGVVQAGGRLRLSCAASGFILGYNDMGWYRPAPGKERELVAAISSSGGSTYYADSVKGRFTISRDNAKNTVYLQMNSLKPEDTAVYYCGLPYQTSYGEYDYWGQGTQVTVSS
- polyreactivity (PSR sort gate): low polyreactivity

Sequence: QVQLVESGGGLVQAGGSLRLSCAASGSTFYPYALGWYRQAHGKVRELVATISFSGGRTYYADSVKGRFTISRDNAKNTVYLQMHSLKPEDTAVYYCAAVSYWHDGHRGNYWGQGTQVTVSS
- polyreactivity (PSR sort gate): low polyreactivity

Sequence: QDQLVESGGGLVQAGGSLRLSCAASGGNFYGNAMGWYRQAPGKERELVATISRRGGSTYYADSVKGRFTISRDNAKNSVYLQMNSLKPEDTAVYYCAADARSSYYTKRFDYWGQGTQVTVSS
- polyreactivity (PSR sort gate): high polyreactivity

Sequence: QLQLVESGGGLVQAGGSLRLSCAASGSIFSRNAMGWYRQAPAKERELVAGISTGGSTNYADSVKGRFTISRDNAKNTVYLLMNSLKTEVTAVYYCAAPLAYEGDYWGQGTQVTVSS
- polyreactivity (PSR sort gate): low polyreactivity

Sequence: QVQLVESGGGLVQAGGSLRLSCAASGSIFYGNAMGWYRQAPGKERELVAAISARGGSTNYADSVKGRFTISRDNAKNTVYLQMNSLKPEDTSVYYCAADTPVWSGYWYYYWGQGTQVTVSS
- polyreactivity (PSR sort gate): low polyreactivity

Sequence: QVQLVESGGGLVQAGGSLRLSCAASGSIFYKYAMGWYRQAPGKERELVATIRASGGRTYYADSVKGRFTISRDNAKNTVYLQMNSLKPEDTAVYYCAKYTTRGVYRSWPKDMDYWGQGTQVTVSS
- polyreactivity (PSR sort gate): low polyreactivity

Sequence: QVQLVESGGGLVKEGGSLRLSCAASGSIFDWYVMGWYRQAPRKERELVATITRDGSTNYADSVKGRFTISRDNAKNTVYLQMNSLKPEDTAVYYCAAVIRSNRLYDGGYWGQGTQVTVSS
- polyreactivity (PSR sort gate): low polyreactivity

Sequence: QVQLVESGGGLVQAGGSLRLSCAASGFIFAYYTMGWYRQAPGKERELVAAISWSGGTTYYADSVKGRFTISRDNAKNTVYLQMNSLKPEDTAVYYCNAYPKWLGYYEDDYWGQGTQVTVSS
- polyreactivity (PSR sort gate): low polyreactivity

Sequence: QVQLVESGGGLVQAGGSLRLSCAASGRIYGYAMGWYRQAPGKEREFVAVISRRGSSTYYADSVKGRFTISRDNAKNTVYLQMNSLKPEDTAVYYCAAGKFYYSIGPGYDYWGQGTQVTVSS
- polyreactivity (PSR sort gate): high polyreactivity

Source: the nanobody polyreactivity screen of Harvey et al. (2022)
